For assay [1], the target named is RXFP1 LDLa-linker (human). Briefly: NMR titration; RXFP1 LDLa-linker titrated with truncated relaxin (Supp Fig. 5).
In assay [2] the target is RXFP2(1-65) P4F (human). Description: NMR titration; 2D 1H-15N HSQC; increasing concentrations of titrant against 50 µM 15N-labelled RXFP2(1-65) P4F; 25 °C, 50 mM imidazole, 10 mM CaCl2, pH 6.8.
The target in assay [3] is Relaxin family peptide receptor 2 (RXFP2), wild type (human) (UniProt Q8WXD0). Briefly: europium-labelled ligand saturation binding on whole cells (time-resolved fluorescence); HEK293T cells transiently transfected with receptor; increasing concentrations of Eu-INSL3 or Eu-H2 relaxin with or without 1 µM unlabeled ligand, 1 h incubation; one-site binding curves.
The target is the same in assay [4].
In assay [5] the target is RXFP2 T44A (human).
The target of assay [6] is RXFP2-F51A (human).
Assay [7] concerns the target RXFP2 S45A (human).
Assay [8] has as its target RXFP2-G42A (human).
Assay [9] concerns the target RXFP2 D43A (human). Description: europium-labelled ligand saturation binding on whole cells (time-resolved fluorescence); HEK293T cells transiently transfected with receptor; increasing concentrations of Eu-INSL3 or Eu-H2 relaxin with or without 1 µM unlabeled ligand, 1 h incubation; one-site binding curves.
Assay [10] concerns the target RXFP2-G46A (human). The assay is described as above.
The target in assay [11] is RXFP2 T44A (human). Described as above.
The target of assay [12] is RXFP2-F51A (human). Described as above.
In assay [13] the target is RXFP2 W47A (human). The description is as above.
The target in assay [14] is RXFP2 S45A (human). Described as above.
For assay [15], the target named is RXFP2-G42A (human). Described as above.

Chain of UniProt Q8WXD0 (Q8WXD0 whole entry): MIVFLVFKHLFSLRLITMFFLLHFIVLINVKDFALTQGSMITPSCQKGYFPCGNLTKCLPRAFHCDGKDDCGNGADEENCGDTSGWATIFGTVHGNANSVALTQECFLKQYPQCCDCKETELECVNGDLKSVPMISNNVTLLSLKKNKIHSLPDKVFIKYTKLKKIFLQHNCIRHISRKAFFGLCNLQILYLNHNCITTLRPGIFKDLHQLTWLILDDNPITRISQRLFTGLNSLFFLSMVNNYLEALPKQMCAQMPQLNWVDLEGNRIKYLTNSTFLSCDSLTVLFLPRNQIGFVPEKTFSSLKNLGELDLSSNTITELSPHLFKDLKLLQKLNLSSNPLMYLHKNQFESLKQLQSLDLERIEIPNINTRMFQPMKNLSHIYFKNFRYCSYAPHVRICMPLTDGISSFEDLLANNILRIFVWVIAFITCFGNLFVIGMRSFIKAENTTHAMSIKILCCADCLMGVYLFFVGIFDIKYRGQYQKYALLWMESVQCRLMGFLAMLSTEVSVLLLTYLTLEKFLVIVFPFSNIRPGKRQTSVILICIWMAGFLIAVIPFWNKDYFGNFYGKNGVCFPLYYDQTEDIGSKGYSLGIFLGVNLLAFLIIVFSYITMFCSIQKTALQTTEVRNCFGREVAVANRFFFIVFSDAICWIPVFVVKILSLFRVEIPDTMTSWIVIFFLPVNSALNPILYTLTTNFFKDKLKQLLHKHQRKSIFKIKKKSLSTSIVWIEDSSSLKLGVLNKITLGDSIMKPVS

For orientation: Kd means the equilibrium constant for the complex coming apart. Low readings indicate tighter binding, high ones weaker binding. In the case of “B5-29 [B-K9R,A-K9/17R] H2 relaxin (ligand)”, the Kd is 90000 nM in assay [1] and 330000 nM in assay [2].

“Europium (Eu3+)-labelled H2 relaxin (ligand)” had a Kd in [3] of 9.96 nM. Also, the Emax: maximal cAMP response (pCRE beta-galactosidase reporter, HEK293T) to unlabelled H2 relaxin, max value based on 1 µM activation is 100% in assay [4]; 53% in assay [5]; 18.8% in assay [6]; 100% in assay [7]; 75.2% in assay [8]. In addition, the pEC50 of the cAMP response (pCRE beta-galactosidase reporter, HEK293T) to unlabelled H2 relaxin was 8.45 in assay [4]; 8.63 in assay [5]; below 6 in assay [6]; 9.03 in [7]; 7.98 in assay [8].

For Europium (Eu3+)-labelled INSL3 (ligand), the Kd in assay [9] came to 1.18 nM; in assay [10], 1.51 nM; in assay [3], 1.07 nM; in [11], 2.11 nM; in assay [12], 1.55 nM; in assay [13], 1.5 nM. Besides, the results for the Kd in assay [14] and in assay [15] were 1.05 nM and 1.93 nM, respectively. Moreover, the Emax: maximal cAMP response (pCRE beta-galactosidase reporter, HEK293T) to unlabelled INSL3 (% maximal RXFP2 activity) in assay [4] was determined as 100; in [5], 98.7; in assay [6], 39.8; in assay [7] it was 92.2; in assay [8], 39.5. The pEC50 of the cAMP response (pCRE beta-galactosidase reporter, HEK293T) to unlabelled INSL3 in [4] came out at 9.99; in assay [5], 10.5; in [6], 9.36; in [7] it was 10.1; in assay [8], 8.98.

These data come from article PMC5468325.
